Test results as given in patent US9321838B2, “Therapy targeting cathepsin S” (Fusion Antibodies Limited, priority 2006, dated 2016).

Columns and labels:
rat aortic ring segments = experiment: ex vivo rat aortic arch (ring) assay in Matrigel; format: cell-based
Method: Male Wistar rats are euthanised and the thoracic aorta is aseptically removed and sectioned into […] thick rings. The rings are washed ten times in sterile medium to remove any bacteria and embedded into Matrigel on 24 well plates. The wells are supplemented with 2 ml of medium and increasing concentrations of antibodies. The plate is incubated for 8 days and post incubation the Matrigel and rings are fixed in 4% PBS buffered paraformaldehyde and stored in PBS. The extent of vessel development is blindly assessed microscopically by an independent investigator and quantified using a calibrated eyepiece graticule (1 mm/100 μm graduation) at 20× magnification (Olympus BX 50). The extent of vessel length, maximum vessel length and number of vessels in each field of view is measured and compared to time matched sham controls and the % inhibition calculated.
To evaluate further the role of CatS in angiogenesis, an ex vivo rat aortic arch assay was performed. Sections of the aorta (1 mm) were cultured within a thin layer of Matrigel in the presence of the inhibitory antibody and appropriate controls. The formation of tube-like vessels from the aorta were monitored and quantified after 7 days by measuring the reduction in the number of vessels, mean vessel length and maximum vessel length compared to controls.

[1] = examination of major mouse organs after treatment in xenograft model; format: in vivo, SCID mice
Method: 6-8 week old female SCID mice were implanted with 2×10^6 HCT116+/+ human colorectal adenocarcinoma cells into each flank. […] They were mixed with equal volumes of matrigel to give a final concentration of 5×10^6 cells/ml. Mice were randomly separated into treatment groups on day 5 after implantation and treated with various regimes of CatS Mab or Isotype control Mab (10 mg/kg) with/without 5Fu (15 mg/kg daily or 70 mg/kg twice weekly). All drugs were administered through a bolus injection. Animals were sacrificed at various time points and tumours were removed for analysis.
Paraffin embedding of formalin-fixed xenograft/organ tissue samples, section cutting and H&E (haematoxylin and eosin) staining of tissue sections were performed as previously described. Immunostaining was performed using the avidin-horseradish peroxidase method (Vectorlabs ABC Kit).
All major mouse organs were examined for architectural changes following treatment.

CatS [2] = biological target: T1, CatS (Homo sapiens, UniProt P25774); settings: fluorigenic substrate; shown in co-pending WO2006/109045; cited from earlier work
T1 sequence (P25774 115-331): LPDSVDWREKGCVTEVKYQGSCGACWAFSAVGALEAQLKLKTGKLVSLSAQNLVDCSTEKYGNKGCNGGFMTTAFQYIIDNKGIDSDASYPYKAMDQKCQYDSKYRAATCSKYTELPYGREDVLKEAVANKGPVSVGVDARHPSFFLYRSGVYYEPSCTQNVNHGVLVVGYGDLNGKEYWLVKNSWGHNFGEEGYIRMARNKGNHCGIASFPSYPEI

CatS [3] = biological target: T1, CatS; experiment: fluorimetric assay of CatS proteolytic activity; format: biochemical
Description: The ability of an agent, for example a small molecule or antibody, to inhibit the proteolytic activity of Cathepsin S may be tested using any suitable method. For example a fluorimetric assay may be used. In such an assay, any suitable fluorigenic substrate may be used, for example Cbz-Phe-Arg-AMC. An agent is considered to inhibit the proteolytic activity of Cathepsin S if it has the ability to inhibit its activity by a statistically significant amount. For example, in one embodiment, an agent for use as the Cathepsin S inhibitor is able to inhibit the […] activity by at least 10%, for example at least 25%, 50%, 70%, 80% or 90%, when compared to an appropriate control antibody.
As shown in co-pending PCT application WO2006/109045, the contents of which are incorporated herein by reference, which claims priority from GB0507219.4 and GB0507272.3, this antibody has potent inhibitory activity.
(§1) The F47 Cathepsin S 1C11 1E11 1E4 cell line which is the hybridoma cell line that produces the IE4 antibody has been deposited with the European Collection of Cell Cultures (“ECACC”) under Accession No. 15072905.

[4] = test system: MCF 7 breast cancer cell line; settings: shown in co-pending WO2006/109045; cited from earlier work
[5] = biological target: T2, CatS on the cell surface of HCT116 cells (Homo sapiens, UniProt P25774); experiment: flow cytometry staining of HCT116 cells with CatS monoclonal antibody; format: binding; settings: HCT116 cells stained for CatS
T2 construct: CatS expression is localised to the cell surface on HCT116 cells; endogenous in cells; host or cells: HCT116
T2 sequence (P25774 115-331): as above
Method: Cells were collected from tissue culture plates using a scraper and washed ×3 in PBS (0.01% tween) (5 minute centrifugation at 1500 rpm). Approximately 5×10^5 cells were placed in appropriately labelled tubes. Cells were incubated with 50 μl anti-CatS or Isotype control (Sigma, UK) for 1 hour at room temperature. Following incubation each tube was washed ×3 in PBS (0.01% tween) (5 minute centrifugation at 1500 rpm). Samples were then incubated with a 1 in 15 dilution of FITC-conjugated goat anti-mouse secondary antibody (Sigma, UK) (samples kept in dark at room temperature). Following incubation each tube was washed ×3 in PBS (0.01% tween) (5 minute centrifugation at 1500 rpm). Samples were resuspended in 0.5 ml of PBS prior to immediate analysis using the Cyan flow cytometer (Dako, UK).
HCT116 cells were stained for CatS expression using a CatS monoclonal antibody as before. Cells were grown on glass coverslips, fixed using ice-cold acetone and incubated with CatS antibody at a 1:100 dilution. Coverslips were rinsed with PBS and incubated with antimouse AlexaFluor® 488 labelled secondary antibody. Coverslips were washed again using PBS, mounted using PermaFluor mounting media and visualised by confocal microscopy.
The presence of Cathepsin S on the cell surface of tumour cells was further confirmed using confocal microscopy. […]

[6] = test system: U251mg astrocytoma cell line; settings: shown in co-pending WO2006/109045; cited from earlier work
[7] = test system: PC3 prostate carcinoma cell line; settings: shown in co-pending WO2006/109045; cited from earlier work
[8] = test system: human microvascular endothelial cells (HMECs); experiment: Matrigel capillary-like tube formation assay; format: cell-based
Method: The effect of the CatS mAb on endothelial cell tube formation was assessed as follows. Two hundred microliter of Matrigel (10 mg/ml) was applied to pre-cooled 48-well plates, incubated for 10 min at 4° C. and then allowed to polymerize for 1 h at 37° C. Cells were suspended in endothelial growth cell medium MV (Promocell), containing 200 nM of the appropriate antibody. Five hundred microliter (1×10^5 cells) were added to each well. As controls, cells were incubated with vehicle-only control medium containing the appropriate volumes of PBS. After 24 h incubation at 37° C. and 5% CO2, cells were viewed using a Nikon Eclipse TE300 microscope.
Using the Matrigel morphogenesis assay described by Grant et al (Cell 1989 Sep. 8; 58 (5): 933-43), capillary-tubule formation assays were performed with human microvascular endothelial cells (HMECs) cultured on Matrigel enabling the endothelial cells form tube-like structures, with invasive sprouts extending from individual cells to form contacts with nearby endothelial cells. FIG. 15a illustrates the results when the HMEC cells were cultured in the presence of two CatS antibodies (1E11 and 1E4) or isotype control.

other cathepsins = experiment: binding specificity / cross-reactivity with other cathepsins; settings: in particular those with the greatest homology to CatS
Description: as §1

[9] = test system: MDMB231 breast cancer cell line; settings: shown in co-pending WO2006/109045; cited from earlier work
[10] = test system: HCT116 colorectal carcinoma cell line; settings: shown in co-pending WO2006/109045; cited from earlier work
[11] = test system: HCT116+/+ human colorectal adenocarcinoma xenograft; experiment: HCT116+/+ xenograft model, immunohistochemistry of tumour sections; format: in vivo, SCID mice; settings: CatS 1E11+5Fu (IC50) vs Mouse IgG1+5-Fu control
Method: Briefly, sections were deparaffinised by passing from xylene to alcohol to running water. Endogenous peroxidase activity was blocked by incubation in 3% H2O2 in methanol for 10 min. Sections were then boiled in citrate buffer, pH6.0, for 22 min. Incubation in 5% normal horse serum blocking solution was carried out for 20 min at room temp. Sections were incubated with primary antibody at 4° C. overnight. Appropriate isotype controls were used at the same dilutions as primary antibodies. […]

[12] = repeat experiment, up to 10 μg/ml

B1: 1E11: Cathepsin S inhibitory monoclonal antibody; VH Seq ID No: 7, VL Seq ID No: 8, CDRs Seq ID Nos: 1-6 (antibody, listed as Mus musculus, V domains shown)
VH: VQLQESGGVLVKPGGSLKLSCAASGFAFSSYDMSWVRQTPEKRLEWVAYITTGGVNTYYPDTVKGRFTISRDNAKNTLYLQMSSLKSEDTAMYYCARHSYFDYWGQGTTVTVSS
VL: DVLMTQTPLSLPVSLGDQASISCRSSQSLVHSNGNTYLHWYLQKPGQSPKLLIYKVSNRFSGVPDRFSGSGSGTDFTLKISRVEAEDLGVYFCSQTTHVPPTFGSGTKLEIKR
modifications: VH domain amino acid sequence; VL domain amino acid sequence
- reduction in maximum vessel length (rat aortic ring segments; [12]): 60%
- reduction in mean vessel length (rat aortic ring segments; [12]): 60%
- reduction in total vessel number (rat aortic ring segments; [12]): 70%
- reduction in maximum vessel length (rat aortic ring segments; up to 600 nM): greater than 80%
- reduction in mean vessel length (rat aortic ring segments; up to 600 nM): greater than 80%
- reduction in total vessel number (rat aortic ring segments; up to 600 nM): greater than 80%
- architectural / pathological change of major mouse organs ([1]; nine-day drug regime CatS 1E11+5Fu (IC50)): No signs of pathological change
- adverse toxic effect ([1]; repeated treatment with 10 mg/kg in combination with chemotherapy): no adverse toxic effect
- inhibition of proteolytic activity of CatS (CatS [2]): inhibits the proteolytic activity of CatS
- ability to inhibit the catalytic activity of CatS (CatS [3]): can specifically inhibit the activity of CatS
- inhibition of tumour cell invasion [4]: potently inhibit tumour cell invasion
- increase in fluorescent intensity in comparison to the isotype control [5]: 38%
- inhibition of tumour cell invasion [6]: potently inhibit tumour cell invasion
- inhibition of tumour cell invasion [7]: potently inhibit tumour cell invasion
- tube formation of HMEC cells on Matrigel ([8]; antibody 200 nM, 24 h, vs vehicle-only and isotype control): almost completely abolished
- capillary tubule formation in Matrigel assay ([8]; summary statement, no concentration given): inhibit capillary tubule formation
- cross-reactivity with other cathepsins (other cathepsins): no cross-reactivity with other cathepsins
- inhibition of tumour cell invasion [9]: potently inhibit tumour cell invasion
- inhibition of tumour cell invasion [10]: potently inhibit tumour cell invasion
- caspase 3 activity in tumour tissue (anti-cleaved caspase-3 staining) [11]: increase in caspase 3 activity
